Results published in EP4350345A2.

How the values were obtained:
[1] = molecular target: monoclonal antibody 21-4-3; experiment: SPR, 21-4-3 captured via anti-mouse IgG, 500 nM
[2] = molecular target: purified interference factor(s) from serum of Donor A; experiment: SPR, interference factor on CM5 chip
[3] = molecular target: purified interference factor(s) from serum of Donor C; experiment: SPR, interference factor on CM5 chip
[4] = molecular target: purified interference factor(s) from serum of Donor B; experiment: SPR, interference factor on CM5 chip

Chain of monoclonal antibody 21-4-3 (VH, as listed by the source, chain 1 of 2): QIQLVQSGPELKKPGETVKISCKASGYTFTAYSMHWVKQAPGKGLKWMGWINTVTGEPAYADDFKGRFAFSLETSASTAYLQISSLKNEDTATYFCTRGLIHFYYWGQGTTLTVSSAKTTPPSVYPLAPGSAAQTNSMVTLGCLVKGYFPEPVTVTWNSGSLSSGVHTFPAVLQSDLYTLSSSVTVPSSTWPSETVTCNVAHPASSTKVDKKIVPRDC
Chain of monoclonal antibody 21-4-3 (VL, as listed by the source, chain 2 of 2): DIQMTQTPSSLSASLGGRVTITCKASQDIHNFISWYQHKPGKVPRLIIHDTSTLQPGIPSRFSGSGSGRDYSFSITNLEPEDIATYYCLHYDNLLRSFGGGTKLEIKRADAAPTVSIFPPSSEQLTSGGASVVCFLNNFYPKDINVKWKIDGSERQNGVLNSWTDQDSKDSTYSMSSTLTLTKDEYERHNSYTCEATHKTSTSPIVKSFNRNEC

binding as % of Reference Sequence (=100%) [1] | binding as % of Reference Sequence (=100%) [2] | binding as % of Reference Sequence (=100%) [3] | binding as % of Reference Sequence (=100%) [4] | Binder
4% | 1% |  |  | Nanobody or Nanobody construct of SEQ ID NO: 47 (VHH) VHH: EVQLVESGGGLVQPGGSLRLSCAASGSVFKINVMAWYRQAPGKGRELVAGIISGGSTSYADSVKGRFTISRDNAKNTLYLQMNSLRPEDTAVYYCAFITTESDYDLGRRYWGQGTLVTVSS
3% | 0% |  |  | Nanobody or Nanobody construct of SEQ ID NO: 48 (VHH) VHH: EVQLVESGGGLVQPGGSLRLSCIASGLPFSTKSMGWFRQAPGKEREFVARISPGGTSRYYGDFVKGRFAISRDNAKNTTWLQMNSLKAEDTAVYYCASGERSTYIGSNYYRTNEYDYWGTGTQVTVSS
 | 9% | 7% | 25% | Nanobody or Nanobody construct of SEQ ID NO: 38 (VHH) EVQLVESGGGLVQPGGSLRLSCAASGFTFSSYAMSWVRQAPGKGLEWVSGIKSSGDSTRYAGSVKGRFTISRDNAKNTLYLQMNSLRPEDTAVYYCAKSRVSRTGLYTYDNRGQGTLVTVSSGGGGSGGGGSGGGGSGGGGSEVQLVESGGGLVQPGGSLRLSCAASGRTFNNYAMGWFRQAPGKEREFVAAITRSGVRSGVSAIYGDSVKDRFTISRDNAKNTLYLQMNSLRPEDTAVYYCAASAIGSGALRRFEYDYSGQGTLVTVSSA
 | 1% |  | 4% | Nanobody or Nanobody construct of SEQ ID NO: 42 (VHH) EVQLVESGGGLVQPGGSLRLSCAASGRTFSYNPMGWFRQAPGKGRELVAAISRTGGSTYYPDSVEGRFTISRDNAKRMVYLQMNSLRAEDTAVYYCAAAGVRAEDGRVRTLPSEYTFWGQGTQVTVSSAAAEVQLVESGGGLVQPGGSLRLSCAASGRTFSYNPMGWFRQAPGKGRELVAAISRTGGSTYYPDSVEGRFTISRDNAKRMVYLQMNSLRAEDTAVYYCAAAGVRAEDGRVRTLPSEYTFWGQGTQVTVSSA
4% | 0% |  |  | Nanobody or Nanobody construct of SEQ ID NO: 49 (VHH) VHH: EVQLLESGGGLVQPGGSLRLSCAASGLPFSTKSMGWFRQAPGKGREFVSRISPGGTSRYYGDFVKGRFTISRDNSKNTLYLQMNSLRAEDTAVYYCASGERSTYIGSNYYRTNEYDYWGQGTLVTVSS
3% | 3% |  | 20% | Nanobody or Nanobody construct of SEQ ID NO: 43 (VHH) DVQLVESGGGLVQPGGSLRLSCAASGFILDYYAIGWFRQAPGKEREGVLCIDASDDITYYADSVKGRFTISRDNSKNTVYLQMNSLRPEDTAVYYCATPIGLSSSCLLEYDYDYWGQGTLVTVSSGGGGSGGGSEVQLLESGGGLVQPGGSLRLSCAASGFTFRSFGMSWVRQAPGKGPEWVSSISGSGSDTLYADSVKGRFTISRDNSKNTLYLQMNSLRPEDTAVYYCTIGGSLSRSSQGTLVTVSSA
32% | 46% | 42% | 5% | Nanobody or Nanobody construct of SEQ ID NO: 85 (VHH) VHH: EVQLVESGGGSVQPGGSLRLSCAASRSIGRLDRMGWYRHRPGEPRELVATITGGSSINYGDSVKGRFTISIDNSKNTVYLQMNSLRPEDTAVYYCNFNKYVTSRDTWGQGTLVQVGG
22% | 0% |  |  | Nanobody or Nanobody construct of SEQ ID NO: 45 (VHH) VHH: EVQLVESGGGLVQAGGSLRLSCAASRSIGRLDRMGWYRHRTGEPRELVATITGGSSINYGDFVKGRFTISIDNAKNTVYLQMNNLKPEDTAVYYCNFNKYVTSRDTWGQGTQVTVSS
26% | 38% | 49% | 115% | Nanobody or Nanobody construct of SEQ ID NO: 68 (VHH) VHH: EVQLVESGGGLVQAGGSLRLSCAASRSIGRLDRMGWYRHRPGEPRELVATITGGSSINYGDSVKGRFTISIDNSKNTVYLQMNSLRPEDTAVYYCNFNKYVTSRDTWGQGTQVTVSS
51% | 65% | 58% | 5% | Nanobody or Nanobody construct of SEQ ID NO: 80 (VHH) VHH: EVQLVESGGGLVQPGGSLRLSCAASRSIGRLDRMGWYRHRPGEPRELVATITGGSSINYGDSVKGRFTISIDNSKNTVYLQMNSLRPEDTAVYYCNFNKYVTSRDTWGQGTLVQVGG
106% | 80% | 84% | 120% | Nanobody or Nanobody construct of SEQ ID NO: 69 (VHH) VHH: EVQLVESGGGLVQPGGSLRLSCAASRSIGRLDRMGWYRHRPGEPRELVATITGGSSINYGDSVKGRFTISIDNSKNTVYLQMNSLRPEDTAVYYCNFNKYVTSRDTWGQGTQVTVSS
44% | 88% | 87% | 105% | Nanobody or Nanobody construct of SEQ ID NO: 71 (VHH) VHH: EVQLVESGGGLVQPGGSLRLSCAASRSIGRLDRMGWYRHRPGEPRELVATITGGSSINYGDSVKGRFTISIDNSKNTVYLQMNSLRPEDTAVYYCNFNKYVTSRDTWGQGTLVTVSG
48% | 81% | 84% | 29% | Nanobody or Nanobody construct of SEQ ID NO: 66 (VHH) VHH: EVQLVESGGGSVQPGGSLRLSCAASRSIGRLDRMGWYRHRPGEPRELVATITGGSSINYGDSVKGRFTISIDNSKNTVYLQMNSLRPEDTAVYYCNFNKYVTSRDTWGQGTLVTVSS
101% | 102% | 96% | 117% | Nanobody or Nanobody construct of SEQ ID NO: 67 (VHH) VHH: EVQLVESGGGLVQPGGSLRLSCAASRSIGRLDRMGWYRHRPGEPRELVATITGGSSINYGDSVKGRFTISIDNSKNTVYLQMNSLKPEDTAVYYCNFNKYVTSRDTWGQGTLVTVSS
41% | 51% | 39% | 5% | Nanobody or Nanobody construct of SEQ ID NO: 87 (VHH) VHH: EVQLVESGGGSVQPGGSLRLSCAASRSIGRLDRMGWYRHRPGEPRELVATITGGSSINYGDSVKGRFTISIDNSKNTVYLQMNSLRPEDTAVYYCNFNKYVTSRDTWGQGTLVTVGG
106% | 90% | 98% | 105% | Nanobody or Nanobody construct of SEQ ID NO: 70 (VHH) VHH: EVQLVESGGGLVQPGGSLRLSCAASRSIGRLDRMGWYRHRPGEPRELVATITGGSSINYGDSVKGRFTISIDNSKNTVYLQMNSLRPEDTAVYYCNFNKYVTSRDTWGQGTLVQVSS
79% | 56% | 61% | 73% | Nanobody or Nanobody construct of SEQ ID NO: 83 (VHH) VHH: EVQLVESGGGLVQPGGSLRLSCAASRSIGRLDRMGWYRHRPGEPRELVATITGGSSINYGDSVKGRFTISIDNSKNTVYLQMNSLRPEDAAVYYCNFNKYVTSRDTWGQGTLVTVSS
23% | 73% | 64% | 121% | Nanobody or Nanobody construct of SEQ ID NO: 65 (VHH) VHH: EVQLVESGGGLVQAGGSLRLSCAASRSIGRLDRMGWYRHRPGEPRELVATITGGSSINYGDSVKGRFTISIDNSKNTVYLQMNSLRPEDTAVYYCNFNKYVTSRDTWGQGTLVTVSS
2% | 14% | 17% | 5% | Nanobody or Nanobody construct of SEQ ID NO: 89 (VHH) VHH: EVQLVESGGGSVQAGGSLRLSCAASRSIGRLDRMGWYRHRPGEPRELVATITGGSSINYGDSVKGRFTISIDNSKNTVYLQMNSLRPEDTAVYYCNFNKYVTSRDTWGQGTLVQVGG
91% | 84% | 83% | 50% | Nanobody or Nanobody construct of SEQ ID NO: 84 (VHH) VHH: EVQLVESGGGLVQPGGSLRLSCAASRSIGRLDRMGWYRHRPGEPRELVATITGGSSINYGDSVKGRFTISIDNSKNTVYLQMNSLRPEDTAVYYCNFNKYVTSRDTWGQGTLVTVGS
75% | 94% | 89% | 50% | Nanobody or Nanobody construct of SEQ ID NO: 81 (VHH) VHH: EVQLVESGGGVVQPGGSLRLSCAASRSIGRLDRMGWYRHRPGEPRELVATITGGSSINYGDSVKGRFTISIDNSKNTVYLQMNSLRPEDTAVYYCNFNKYVTSRDTWGQGTLVTVSS
1% | 96% | 100% | 96% | Nanobody or Nanobody construct of SEQ ID NO: 78 (VHH) VHH: EVQLVESGGGLVRPGGSLRLSCAASRSIGRLDRMGWYRHRPGEPRELVATITGGSSINYGDSVKGRFTISIDNSKNTVYLQMNSLRPEDTAVYYCNFNKYVTSRDTWGQGTLVTVSS
56% | 96% | 100% | 80% | Nanobody or Nanobody construct of SEQ ID NO: 82 (VHH) VHH: EVQLVESGGGLVQPGGSLRLSCAASRSIGRLDRMGWYRHRPGEPRELVATITGGSSINYGDSVKGRFTISIDNSKNTVYLQMNSLRAEDTAVYYCNFNKYVTSRDTWGQGTLVTVSS
